Biological target: ^cchexAFG3L2 (human) (UniProt Q9Y4W6)
Assay: SEC

Substance: ^cchexAFG3L2 (from UniProt Q9Y4W6 272-797) (enzyme)
- stoichiometry N: 6

From publication PMC6475807
